6 compounds from patent US11484611B2, “Method for sterilizing biological materials” (FM&G Biomed Co., Ltd., priority 2006, dated 2022) can be followed below.

Holding throughout (format): physicochemical
A short description of data set [1]: Capillary electrochromatography of sterilized hyaluronan. As to conditions: absorbance at 194 nm, corresponds to amount of hyaluronan. The protocol:
Two equivalent amounts of hyaluronan (average molecular weight: 58 kDa), were respectively subjected to ozone sterilization and autoclave sterilization. Subsequently, the sterilized samples were analyzed by capillary electrochromatography using a fused silica capillary and a 50 mM phosphate buffer (pH 2.99). Separations were carried out at 25 kV and a column temperature of 25° C. Absorbance was detected at 194 nm. Shown in Table 3 below are the areas under the peak for each of the two samples, which correspond to the amount of hyaluronan contained therein. An untreated sample was included as the control.

Data set [2] is described as follows: Acrylamide gel electrophoresis of sterilized pepsin and bromelain. The following applies: 5% acrylamide gel, Coomassie blue. The method, then:
Samples of two dehydrated enzymes, i.e., pepsin and bromelain, were untreated, sterilized by autoclave, or sterilized with ozone. Subsequently, the samples were dissolved acetate solutions, analyzed by 5% acrylamide gel electrophoresis, and stained with Coomassie blue.

A short description of data set [3]: Fluorescence intensity of riboflavin solutions under ultraviolet irradiation. The following applies: aqueous solution; compared with untreated riboflavin solutions; higher intensity = degradation. The method, then:
Dehydrated riboflavin was untreated, sterilized by autoclave, or sterilized with ozone. Samples were then dissolved in water to prepare six riboflavin solutions, i.e., solution 1 (100 mg/mL, autoclaved), solution 2 (100 mg/mL, ozone-sterilized), solution 3 (100 mg/mL, untreated), solution 4 (50 mg/mL, autoclaved), solution 5 (50 mg/mL, ozone-sterilized), and solution 6 (50 mg/mL, untreated). Fluorescence intensities of the six solutions were observed under ultraviolet irradiation.

Data set [4] in a line: Molecular property of sterilized collagen by acrylamide gel electrophoresis. The method, then:
Molecular Property of Sterilized Collagen: equivalent amounts of dehydrated collagen were subjected to the following respective treatments: (1) non-treatment; (2) treatment with ozone gas, as described in Example 1; (3) treatment with ultraviolet irradiation for 12 hours; (4) immersion in 75 vol. % ethanol for 4 hours; (5) immersion in 2 vol. % formaldehyde for 1 hour; or (6) autoclave sterilization under high-temperature and high-pressure. Afterwards, each of the samples from the aforementioned treatments was dissolved in acetate solution, analyzed by 5% acrylamide gel electrophoresis, and stained with Coomassie blue.

Take hyaluronan: the “Area under the Peak” value in data set [1] (Autoclaved) is 633930; in data set [1] (Ozone-treated), 814725.

On to bromelain, for which the “band in electrophoresis gel” value was “only showed an indistinct band” in data set [2] (autoclaved) and “the same band as the control” in data set [2] (ozone-treated).

For `Cc1cc2nc3c(=O)[nH]c(=O)nc-3n(C[C@H](O)[C@H](O)[C@H](O)CO)c2cc1C` [solution 4, riboflavin], the “fluorescence intensity under ultraviolet irradiation” value in data set [3] is recorded as “higher than those of the untreated control solutions”.

With pepsin, the “band in electrophoresis gel” value in data set [2] (autoclaved) was “a band with substantially reduced stain density”; in data set [2] (ozone-treated), “a single band that was the same as that shown by untreated pepsin”.

Regarding collagen, the “bands of α1, α2 and β chains in electrophoresis gel” value in data set [4] (autoclave sterilization, high-temperature and high-pressure, lane (6)) is “mostly degraded”; in data set [4] (immersion in 2 vol. % formaldehyde for 1 hour, lane (5)) it was “showed no bands”; in data set [4] (immersion in 75 vol. % ethanol for 4 hours, lane (4)), “only showed indistinct bands”; in data set [4] (treated by ozone gas, lane (2), 5% acrylamide gel, Coomassie blue) it was “substantially the same as the control”; in data set [4] (ultraviolet irradiation for 12 hours, lane (3)), “partially polymerized and cleaved”.

On to `Cc1cc2nc3c(=O)[nH]c(=O)nc-3n(C[C@H](O)[C@H](O)[C@H](O)CO)c2cc1C` [solution 1, riboflavin], for which the “fluorescence intensity under ultraviolet irradiation” value in data set [3] is on record as “higher than those of the untreated control solutions”.
